Measurements reported in US20220396632A1 (VERSEAU THERAPEUTICS, published 2022).
Non-standard residues stand in square brackets, D forms with d. No end group written: not given here. *: point of attachment. Biotin = O=C1N[C@H]2[C@H](CS[C@H]2CCCCC(=O)*)N1; sY = N[C@@H](Cc1ccc(OS(=O)(=O)O)cc1)C(=O)O

T1: Recombinant human PSGL-1(ECD)-hFc1 (R&D Systems, Cat. 3345-PS) (human, UniProt Q14242 42-305)
T1 construct: Bought; Gln42-Val295 counted on AAC50061; also called PSGL-1-Fc; PSGL-1-hFc1 chimera; not shown: human IgG1 Fc, Pro100-Lys330
T1 sequence: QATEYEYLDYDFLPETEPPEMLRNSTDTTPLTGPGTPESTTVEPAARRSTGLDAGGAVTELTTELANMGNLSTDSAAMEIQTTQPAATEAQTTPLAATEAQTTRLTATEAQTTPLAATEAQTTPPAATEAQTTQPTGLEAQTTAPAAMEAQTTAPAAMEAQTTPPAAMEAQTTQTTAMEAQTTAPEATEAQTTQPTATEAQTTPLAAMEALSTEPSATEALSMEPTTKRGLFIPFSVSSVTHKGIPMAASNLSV

T2: Sulfotyr fibrinogen γ peptide (not fully specified; Y8 and Y12 sulfated (SO3); C-terminal biotin)
T2 construct: also called Fibrinogen gamma peptide; human sulfotyrosinylated fibrinogen peptide
T2 peptide: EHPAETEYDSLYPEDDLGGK

T3: SulfoTyr C4 peptide (not fully specified; Y4, Y7 and Y9 sulfated (SO3); C-terminal biotin)
T3 construct: also called C4 alpha chain peptide; human sulfotyrosinylated C4 peptide
T3 peptide: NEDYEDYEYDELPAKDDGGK

T4: Sulfotyrosine CCR2b biotin peptide (human)
T4 construct: also called CCR2b peptide
T4 peptide: TTFFD[sY]D[sY]GAPSHGGK(Biotin)

T5: Biotin Y46,48,51(SO3) PSGL-1(42-62) peptide (human, sulfotyrosine at Y46, Y48 and Y51; C-terminal Lys-biotin)
T5 construct: also called fully sulfated N-terminal PSGL-1 peptide
T5 peptide: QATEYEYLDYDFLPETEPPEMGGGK

T6: Scrambled Y42,52,63(SO3) PSGL-1(42-62) biotin peptide (sulfotyrosine at peptide positions 1, 11 and 22; C-terminal Lys-biotin)
T6 peptide: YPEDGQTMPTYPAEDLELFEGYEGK

T7: Biotin PSGL-1(42-62) peptide, unmodified (human, C-terminal Lys-biotin)
T7 construct: Residues 42-62 followed by GGGK-biotin; also called WT; wild-type
T7 peptide: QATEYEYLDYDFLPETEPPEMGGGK


Columns and labels:
[1] = biological target: T1, Recombinant human PSGL-1(ECD)-hFc1 (R&D …); experiment: blocking ELISA vs L-selectin-Fc
Method: (§1) A typical selectin blocking ELISA assay involved coating high binding half-well plates (Corning, Cat. #3690) with 2.5 ug/mL/25 ul per well of recombinant PSGL-1-Fc protein (R&D Systems, Cat #3345-PS) in PBS, pH 7.4, overnight at 4° C. […] Antibody (test and controls) was serially diluted (25 ul/well) in duplicate in assay buffer (3% BSA in wash buffer) into appropriate wells and the plate incubated for 45 min at 37° C. […] The plate was washed ×3 and HRP-conjugated streptavidin was added in assay buffer [25 ul per well; (Jackson Immunoresearch, Cat. #016-030-084)] and the plate incubated for 45 min at 37° C. […] For each antibody, an IC50 value was determined from sigmoidal fitted titration curves.

[2] = biological target: T1, Recombinant human PSGL-1(ECD)-hFc1 (R&D …); experiment: blocking ELISA vs P-selectin-Fc
Method: as §1

[3] = biological target: T8, Human complement C4 protein (Millipore Sigma, Cat. 204886) (human, UniProt P0C0L4 20-675; P0C0L4 680-1446; P0C0L4 1454-1744, limits assumed, natural sulfotyrosines); experiment: ELISA, 50 nM mAb
T8 construct: mature
T8 sequence (P0C0L4 20-675 limits assumed, form in doubt, chain 1 of 3): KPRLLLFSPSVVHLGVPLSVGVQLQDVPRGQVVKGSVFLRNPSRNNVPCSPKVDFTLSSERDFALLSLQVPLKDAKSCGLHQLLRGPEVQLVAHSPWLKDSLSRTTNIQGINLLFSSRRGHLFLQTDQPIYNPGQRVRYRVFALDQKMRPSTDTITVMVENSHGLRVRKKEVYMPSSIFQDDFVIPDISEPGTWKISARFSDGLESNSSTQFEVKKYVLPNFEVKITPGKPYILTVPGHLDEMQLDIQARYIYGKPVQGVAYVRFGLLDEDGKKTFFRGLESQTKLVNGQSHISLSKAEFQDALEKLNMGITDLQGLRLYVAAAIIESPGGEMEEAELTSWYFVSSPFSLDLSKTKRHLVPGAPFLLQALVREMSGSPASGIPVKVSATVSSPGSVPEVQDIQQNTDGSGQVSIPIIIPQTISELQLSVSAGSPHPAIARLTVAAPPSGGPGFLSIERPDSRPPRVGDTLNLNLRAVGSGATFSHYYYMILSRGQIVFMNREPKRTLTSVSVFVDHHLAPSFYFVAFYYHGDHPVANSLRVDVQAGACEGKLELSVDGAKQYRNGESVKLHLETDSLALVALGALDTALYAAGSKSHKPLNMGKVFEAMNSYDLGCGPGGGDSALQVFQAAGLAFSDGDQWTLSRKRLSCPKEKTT
T8 sequence (P0C0L4 680-1446 limits assumed, form in doubt, chain 2 of 3): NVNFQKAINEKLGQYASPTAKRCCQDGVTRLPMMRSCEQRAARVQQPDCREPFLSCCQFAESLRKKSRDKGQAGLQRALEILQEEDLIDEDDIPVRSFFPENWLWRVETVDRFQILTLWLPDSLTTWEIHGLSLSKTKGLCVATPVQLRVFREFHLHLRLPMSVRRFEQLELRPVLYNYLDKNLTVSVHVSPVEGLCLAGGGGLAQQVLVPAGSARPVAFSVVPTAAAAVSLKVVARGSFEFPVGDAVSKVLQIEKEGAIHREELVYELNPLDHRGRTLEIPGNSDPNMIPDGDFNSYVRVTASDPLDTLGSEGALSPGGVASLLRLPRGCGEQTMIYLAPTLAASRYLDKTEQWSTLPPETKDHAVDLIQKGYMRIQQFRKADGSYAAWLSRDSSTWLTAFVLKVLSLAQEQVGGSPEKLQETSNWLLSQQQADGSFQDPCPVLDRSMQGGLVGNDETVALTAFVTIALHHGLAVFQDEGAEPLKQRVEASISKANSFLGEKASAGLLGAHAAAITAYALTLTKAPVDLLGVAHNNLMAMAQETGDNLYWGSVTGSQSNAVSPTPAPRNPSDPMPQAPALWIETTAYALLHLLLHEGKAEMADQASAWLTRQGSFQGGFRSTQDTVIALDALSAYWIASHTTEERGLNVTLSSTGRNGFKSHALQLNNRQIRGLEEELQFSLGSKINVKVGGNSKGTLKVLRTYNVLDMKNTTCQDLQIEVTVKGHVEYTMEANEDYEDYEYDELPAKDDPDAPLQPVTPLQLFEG
T8 sequence (P0C0L4 1454-1744 limits assumed, form in doubt, chain 3 of 3): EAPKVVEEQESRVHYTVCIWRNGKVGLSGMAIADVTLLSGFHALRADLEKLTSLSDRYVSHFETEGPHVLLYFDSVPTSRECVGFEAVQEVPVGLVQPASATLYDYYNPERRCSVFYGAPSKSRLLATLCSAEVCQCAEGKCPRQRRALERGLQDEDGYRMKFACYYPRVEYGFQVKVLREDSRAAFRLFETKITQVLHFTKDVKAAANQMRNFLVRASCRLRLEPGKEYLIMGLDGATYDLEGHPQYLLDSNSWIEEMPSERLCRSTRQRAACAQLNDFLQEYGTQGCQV
Method: (§2) Recombinant PSGL-1-hFc1 chimera protein consisting of PSGL-1's extracellular domain (ECD) served as a positive control. […] Primary antibody was added (25 ul per well) in duplicate at 50 nM in assay buffer (blocking buffer containing 0.05% Tween®20) into test and control (just blocked) wells and the plate incubated for 45 min at 37° C.

[4] = biological target: T2, Sulfotyr fibrinogen γ peptide; experiment: ELISA, 50 nM mAb
Method: as §2

SulfoTyr C4 peptide = biological target: T3, SulfoTyr C4 peptide; experiment: ELISA, 50 nM mAb
Method: as §2

[5] = biological target: T1, Recombinant human PSGL-1(ECD)-hFc1 (R&D …); experiment: ELISA, 50 nM mAb
Method: as §2

[6] = biological target: T4, Sulfotyrosine CCR2b biotin peptide; experiment: ELISA, 50 nM mAb
Method: as §2

[7] = biological target: T9, Cynomolgus PSGL-1(ECD)-hFc1 (cynomolgus macaque); experiment: ELISA, 20 nM mAb on plate cyno PSGL-1(ECD)-Fc
T9 construct: also called Cyno PSGL1-Fc; Cyno PSGL-1(ECD)-Fc
T9 sequence (chain, as listed by the source limits assumed): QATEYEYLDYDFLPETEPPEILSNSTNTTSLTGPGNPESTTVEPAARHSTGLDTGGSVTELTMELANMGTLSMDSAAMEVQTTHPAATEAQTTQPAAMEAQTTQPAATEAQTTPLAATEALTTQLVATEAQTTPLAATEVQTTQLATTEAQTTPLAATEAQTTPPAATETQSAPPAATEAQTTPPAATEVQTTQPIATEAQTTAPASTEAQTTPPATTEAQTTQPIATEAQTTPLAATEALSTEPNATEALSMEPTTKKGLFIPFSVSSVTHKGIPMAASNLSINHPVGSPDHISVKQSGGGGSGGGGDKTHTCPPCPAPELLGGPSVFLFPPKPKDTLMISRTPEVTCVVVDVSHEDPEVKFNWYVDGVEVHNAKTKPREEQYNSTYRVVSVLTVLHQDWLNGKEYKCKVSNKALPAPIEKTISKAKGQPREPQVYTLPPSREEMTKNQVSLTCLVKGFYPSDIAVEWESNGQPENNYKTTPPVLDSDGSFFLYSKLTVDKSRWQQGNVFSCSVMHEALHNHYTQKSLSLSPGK
How it was run: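 Cyno PSGL-1 ECD protein coated overnight at 4° C. at 3 ug/mL in PBS pH 7.4; anti-PSGL-1 IgG added either at single 20 nM or as 0.003-200 nM binding curve, 45 min at 37° C. Bound mAb read at A450 nm with HRP/TMB; duplicates averaged, background subtracted.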

[8] = biological target: T5, Biotin Y46,48,51(SO3) PSGL-1(42-62) …; experiment: ELISA, immobilized biotin peptide
How it was run: (§3)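 In this ELISA, half-well high binding plates (Corning Cat. #3690) received 3 ug/mL/25 ul per well of biotin-tagged PSGL-1 peptides covering residues 42 to 62, diluted in PBS, pH 7.4, and coated overnight at 4° C. Duplicate readings for each antibody were averaged and the average assay background was subtracted. PSGL-1 protein or peptide was the positive control.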

[9] = biological target: T6, Scrambled Y42,52,63(SO3) PSGL-1(42-62) …; experiment: ELISA, immobilized biotin peptide
How it was run: as §3

[10] = biological target: T7, Biotin PSGL-1(42-62) peptide, unmodified; experiment: ELISA, immobilized biotin peptide
How it was run: as §3

Binder | % max Block [1] [%] | IC50 [1] [nM] | % max Block [2] [%] | IC50 [2] [nM] | binding normalized to PSGL-1 [3] | binding normalized to PSGL-1 [4] | binding normalized to PSGL-1 (SulfoTyr C4 peptide) | A450nm [5] [A450nm] | binding normalized to PSGL-1 [6] | A450nm [7] [A450 nm] | A450nm, 20 nM mAb [8] [A450nm] | A450nm, 20 nM mAb [9] [A450nm] | A450nm, 20 nM mAb [10] [A450nm] | binding result [9] | EC50 [8] [nM] | EC50 [10] [nM]
9F9 (antibody, V domains shown, Control anti-PSGL-1 mAb, recombinant; only variable domains given; also called 9F6) VH: EVQLVETGGGLVQPKGSLKLSCAASGFTFNTNAMNWVRQAPGKGLEWVARIRSKSNNYATYYADSVKDRFTISRDDTQSMIYLQMNNLKTEDTGMYYCVRGGSYWYFDVWGAGTTVTVSS VL: DVLMTQTPLSLPVSLGDQASISCRSSQSIVNSNGNTYLEWYLQKPGQSPKLLIYKVSNRFSGVPDRFSGSGSGTDFTLKISRVEAEDLGVYYCFQGSHVPWTFGGGTKLEIK | 100 | 10 | 100 | 10 | – | – | – | – | – | – | – | – | – | – | – | –
09C10 (antibody, V domains shown) VH: EVKLLESGGGLIQPGGSLRLSCAASGFTVSNNYVTWVRQAPGKGLELVSSIYSGGGTYYADSVKGRFTISRDNSKNTVYLQMNSLRADDTAVYYCARNVPVTNFGYWGQGTLVTVSS VL: DIVMTQSPLSLPVTLGQPASISCRSSQSLVYRDGNTYLNWFQQRPGQSPRRLIYKVSNRDSGVPDRFSGSGSGTDFTLKISRVEAEDVGVYYCMQLTHWPPGFAQGTKLEIK | – | – | – | – | 0.88 | 1.3 | 1.15 | 2.16 | 1.23 | 1.17 | 2.77 | 0.21 | 0.2 | – | – | –
06C04 (antibody, IgG4, V domains shown) VH: EVQLVESGGGLVQPGGSLRLSCAASGFTFSDHYMDWVRQAPGKGLEWVGRSRNKVKSYTTAYAASVEGRITISRDDSKNSLYLEMNSLKTEDTAVYYCVRVRWGGAFDIWGQGTMVTVSS VL: QPVLTQPPSASGSPGQSVTISCTGTSSDVGGYNYVSWYQQHPGKAPKLMIYEVSKRPSGVPDRFSGSKSGNTASLTVSGLQAEDEADYYCSSYAGSNNLRVFGGGTKLTVL | – | – | – | – | 1.1 | 1.15 | 0.94 | 2.22 | 0.23 | 0.55 | 2.64 | – | 0.07 | no binding (tested: 20 nM) | – | –
16E17 (antibody, V domains shown, From mouse immunisation; only variable domains given) VH: QIQLVQSGPELKKPGETVKISCKASGYAFTTYGMSWVKQAPGKGLKWMGWINTYSGVPKYADDFKGRFAFSLETSASTAYLHINNLKNEDTATYFCGRHYYGSSYFDYWGQGTTLTVSS VL: not shown | 0 | – | 0 | – | – | – | – | – | – | – | – | – | – | – | – | –
18K07 (antibody, V domains shown, From mouse immunisation; only variable domains given) VH: QIQLVQSGPELKKPGETVKISCEASGYTFTTYGMNWVKQAPGKGLKWMGWINTYSGVPTYADDFQGRFAFSVETSATTAYLQINNLKNEDAATYFCARSDDTYYGFAYWGQGTLVTVSA VL: not shown | 0 | – | 0 | – | – | – | – | – | – | – | – | – | – | – | – | –
06A07 (antibody, IgG4, V domains shown) VH: QVQLVQSGPELKNPGASVKVSCKASGYSFTNFYINWVRQAPGRGLEWVGWISPNNGNTHYARNLQGRVTMTTDTSTNTAYLELKNLRSDDTAIYFCGRSVSMGYWGQGTLVTVSS VL: LPVLTQPPSVSKGLRQTATLTCTGNSKNVGNQGAAWLQQHQGQPPKLLSYRNNNRPSGISERFSASRSGNTASLTITGLQPEDEADYYCSAWDSSLSAQVFGGGTKLTVL | – | – | – | – | 0.57 | 0.69 | 0.63 | 2.51 | 0.43 | 1.27 | 2.7 | 0.02 | – | no binding (tested: 20 nM) | ~0.02 | 7.2
5E12 (antibody, V domains shown, Mouse hybridoma mAb; only variable domains given) VH: EIQLQQSGAELVRPGASVKLSCTASGFNIKDDYIHWVKQRPEQGLEWIGRIDPANGNTKSAPKFQDKATITADTSSNTAYLHLSSLTSEDTAVYYCSIRFAYWGQGTLVTVSA VL: DVVMTQTPLSLSVSLGDQASISCRSSQSLVYRNGDTYLHWFLQKPGQSPKLLIYKVSNRFSGVPDRFSGSGSGTDFTLKISRVEAEDLGIYFCSQNTHVPYTFGGGTKLEIK | 0 | – | 0 | – | 0.03 | 0.03 | 0.03 | 2.05 | 0.03 | – | – | – | – | – | 0.633 | 0.539

More lines, now with the values ahead:

% max Block [1] [%] | IC50 [1] [nM] | % max Block [2] [%] | IC50 [2] [nM] | binding normalized to PSGL-1 [3] | binding normalized to PSGL-1 [4] | binding normalized to PSGL-1 (SulfoTyr C4 peptide) | A450nm [5] [A450nm] | binding normalized to PSGL-1 [6] | A450nm [7] [A450 nm] | A450nm, 20 nM mAb [8] [A450nm] | A450nm, 20 nM mAb [9] [A450nm] | A450nm, 20 nM mAb [10] [A450nm] | binding result [9] | EC50 [8] [nM] | EC50 [10] [nM] | Binder
0 | – | 0 | – | – | – | – | – | – | – | – | – | – | – | – | – | 19N05 (antibody, V domains shown, From mouse immunisation; only variable domains given) VH: QIQLVQSGPELKKPGETVKISCKASGYTFTTYGMSWVKQAPGKGLKWMGWINTYSGVPTFADDFKGRFAFSLETSASTAYLQINNLKNEDTATFFCARNYYGNHYFDYWGQGTTLTVSS VL: DVQITQSPSYLAASPGETISINCRASNNINKYLAWYQEKPGKTNKLLIYSGSTLQSGIPSRFSGSGSGTDFTLTISSLEPEDFAMYHCQQHNYYPLTFGAGTKLELK
0 | – | 0 | – | – | – | – | – | – | – | – | – | – | – | – | – | 19L04 (antibody, IgG4, V domains shown, From mouse immunisation; only variable domains given) VH: QIQLVQSGPELKKPGETVKISCKASGYTFTTYGMSWVKQAPGKGLKWMGWINTYSGVPTYADDFKGRFAFSLETSASTAYLQINNLKIEDTATYFCARHYYGSHYFDYWGQGTTLTVSS VL: DIMMTQSPSSLAMSVGQKVTLRCKSSQSLLNSSNQKNYLAWYQQKPGQSPKLLVYFASTRESGVPVRFIGSGSGTDFTLTISSMQAEDLADYFCQQHYFSPLTFGAGTKLELK
– | – | – | – | 1.04 | 1.05 | 1 | 2.46 | 0.85 | 0.77 | 2.57 | 0.01 | – | no binding (tested: 20 nM) | ~0.01 | > 500 | 05E08 (antibody, IgG4, V domains shown) VH: EVQLVQSGGGVVQPGRSLRLSCAASGFTFSTYAMHWVRQAPGKGLEWVAVISYDGSNKYYADSVKGRFTISRDNSRNTLFLQMNSLRDEDTAVYYCAKRGTMIRGERSLDFWGQGTLVTVSS VL: AIQMTQSPSFLSASVGDRVTITCRASQGINSWLAWYQQKPGTAPNLLIHAASTLQSGVPSRFSGSRSGTEFTLTISSLQPEDFATYYCQQLQSYPLTFGQGTRLEIK
100 | 6 | 100 | 8 | – | – | – | – | – | – | – | – | – | – | – | – | 43B6 (antibody, V domains shown, Control anti-PSGL-1 mAb, recombinant; only variable domains given; also called 43B3) VH: EVQLQQSGPDLVKPGALVKISCKASGYSFTAYYIHWVKQSHGKSLEWIGRVNPNTGGTSYNPKFKGKAILNVDKSSSTAYMELRSLTSEDSAVYYCARSGSPYYRYDDWGQGTTLTVSS VL: ENVLTQSPAIMSASPGEKVTMTCRASSTVNSTYLHWFQQKSGASPKLWIYGSSNLASGVPARFSGSGSGTSYSLTISSVEAEDAATYYCQQYSGYPLTFGAGTTLELK
